Results as given in patent publication US20200048332A1 (BIOVERATIV USA, published 2020).
Residue numbers refer to the chain shown, from its start.

B1: murine anti-activated C1s antibody (antibody, V domains shown)
VH: EVQLQQSGAELVRPGASVKLSCTASGFNIKDDYIHWVKQRPEQGLEWIGRIDPADGHTKYAPKFQVKATITADTSSNTAYLQLSSLTSEDTAVYYCARYGYGREVFDYWGQGTTLTVSS
VL: DIVLTQSPASLAVSLGQRATISCKASQSVDYDGDSYMNWYQQKTGQPPKILIYDASNLESGIPARFSGSGSGTDFTLNIHPVEEEDAAIYYCQQSNEDPWTFGGGTKLEIK
B2: humanized VH3/Vk2 (antibody, V domains shown)
VH: QVQLVQSGAEVKKPGASVKLSCTASGFNIKDDYIHWVKQAPGQGLEWIGRIDPADGHTKYAPKFQVKVTITADTSTSTAYLELSSLRSEDTAVYYCARYGYGREVFDYWGQGTTVTVSS
VL: B1 VL with A9D, Q17E, T44P, N78T, H80S, P81S, V82L, E84P, A87F, L108V
B3: humanized VH1/Vk5 (antibody, V domains shown)
VH: B2 VH with Q1E, V11L, V68A, S77N, E82Q, R87T
VL: DIVLTQSPDSLAVSLGERATISCKASQSVDYDGDSYMNWYQQKPGQPPKLLIYDASNLESGIPARFSGSGSGTDFTLTISSLEPEDFAVYYCQQSNEDPWTFGGGTKVEIK
B4: humanized VH4/Vk2 (antibody, V domains shown)
VH: B2 VH with L20V, K38R, L81M
VL: B3 VL with L50I, V89I
B5: humanized VH3/Vk5 (antibody, V domains shown)
VH: B2 VH
VL: B3 VL
B6: humanized VH5/Vk1 (antibody, V domains shown)
VH: B2 VH with L20V, T23A, K38R, L81M
VL: B3 VL with P44T, L50I, P84E, V89I
B7: humanized VH1/Vk1 (antibody, V domains shown)
VH: B2 VH with Q1E, V11L, V68A, S77N, E82Q, R87T
VL: B3 VL with P44T, L50I, P84E, V89I
B8: humanized VH4/Vk5 (antibody, V domains shown)
VH: B2 VH with L20V, K38R, L81M
VL: B3 VL
B9: humanized VH5/Vk5 (antibody, V domains shown)
VH: B2 VH with L20V, T23A, K38R, L81M
VL: B3 VL
B10: humanized VH5/Vk2 (antibody, V domains shown)
VH: B2 VH with L20V, T23A, K38R, L81M
VL: B3 VL with L50I, V89I
B11: humanized VH1/Vk2 (antibody, V domains shown)
VH: B2 VH with Q1E, V11L, V68A, S77N, E82Q, R87T
VL: B3 VL with L50I, V89I
B12: humanized VH2/Vk1 (antibody, V domains shown)
VH: B2 VH with Q1E, V68A, S77N
VL: B3 VL with P44T, L50I, P84E, V89I
B13: humanized VH2/Vk5 (antibody, V domains shown)
VH: B2 VH with Q1E, V68A, S77N
VL: B3 VL
B14: humanized VH4/Vk1 (antibody, V domains shown)
VH: B2 VH with L20V, K38R, L81M
VL: B3 VL with P44T, L50I, P84E, V89I
B15: humanized VH3/Vk1 (antibody, V domains shown)
VH: B2 VH
VL: B3 VL with P44T, L50I, P84E, V89I
B16: VH3/VK2-Fc-sub4 (antibody, human IgG4 S228P, kappa, V domains shown)
VH: B2 VH
VL: DIVLTQSPDSLAVSLGERATISCKASQSVDYDGDSYMNWYQQKPGQPPKILIYDASNLESGIPARFSGSGSGTDFTLTISSLEPEDFAIYYCQQSNEDPWTFGGGTKVEIKR
notes: Humanized IgG4; also called TNT020; humanized anti-aC1s variant VH3/VK2-Fc-sub4

biological target: T1, activated C1s (human, UniProt P09871 16-688); assay: cell-based or functional assay
T1 sequence: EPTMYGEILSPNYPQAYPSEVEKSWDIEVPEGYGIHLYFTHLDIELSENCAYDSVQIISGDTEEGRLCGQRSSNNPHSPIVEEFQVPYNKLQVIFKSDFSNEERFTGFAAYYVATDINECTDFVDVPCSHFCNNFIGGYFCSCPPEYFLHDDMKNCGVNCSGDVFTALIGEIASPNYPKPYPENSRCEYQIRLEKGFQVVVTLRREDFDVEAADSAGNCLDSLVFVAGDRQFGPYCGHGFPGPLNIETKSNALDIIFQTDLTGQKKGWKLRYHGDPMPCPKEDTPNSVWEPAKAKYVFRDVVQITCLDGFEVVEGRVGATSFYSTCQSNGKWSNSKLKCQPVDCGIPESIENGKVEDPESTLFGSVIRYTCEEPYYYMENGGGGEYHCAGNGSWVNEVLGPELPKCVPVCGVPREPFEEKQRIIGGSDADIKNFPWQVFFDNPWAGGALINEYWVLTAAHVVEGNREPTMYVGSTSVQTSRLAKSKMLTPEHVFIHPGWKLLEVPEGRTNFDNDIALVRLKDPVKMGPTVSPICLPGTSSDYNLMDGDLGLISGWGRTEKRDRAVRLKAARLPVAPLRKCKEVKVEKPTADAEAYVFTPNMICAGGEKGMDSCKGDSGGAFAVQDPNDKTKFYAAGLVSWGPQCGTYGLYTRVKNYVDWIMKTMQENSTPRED

Point of comparison: B3, “IC50 of classical complement pathway inhibition ('Classical Pathway Inhibition', IC50 (M))” value 1.26e-09 M. Against it:
- B1 — within 1.5-fold, 1.06e-09 M
- B2 — the same, 1.26e-09 M
- B4 — within 1.5-fold, 1.31e-09 M
- B5 — within 1.5-fold, 1.38e-09 M
- B6 — within 1.5-fold, 1.08e-09 M
- B7 — within 1.5-fold, 1.2e-09 M
- B8 — within 1.5-fold, 1.54e-09 M
- B9 — within 1.5-fold, 1.33e-09 M
- B10 — within 1.5-fold, 1.33e-09 M
- B11 — within 1.5-fold, 1.14e-09 M
- B12 — within 1.5-fold, 1.23e-09 M
- B13 — within 1.5-fold, 1.27e-09 M
- B14 — within 1.5-fold, 1.35e-09 M
- B15 — within 1.5-fold, 1.27e-09 M

biological target: T1, activated C1s; assay: method not stated; dissociation constant for active C1s

With B16 the Kd was 1.53 nM.
